Test results reported in publication PMC5727384, “A pH-gated conformational switch regulates the phosphatase activity of bifunctional HisKA-family histidine kinases” (Nature Communications, 2017).

B4: Cytoplasmic portion of HK853 (HK853^cp), wild type, residues 232–489 (domain or fragment, Thermotoga maritima, UniProt Q9WZV7 232-489, looked up)
chain: VENVTESKELERLKRIDRMKTEFIANISHELRTPLTAIKAYAETIYNSLGELDLSTLKEFLEVIIDQSNHLENLLNELLDFSRLERKSLQINREKVDLCDLVESAVNAIKEFASSHNVNVLFESNVPCPVEAYIDPTRIRQVLLNLLNNGVKYSKKDAPDKYVKVILDEKDGGVLIIVEDNGIGIPDHAKDRIFEQFYRVDSSLTYEVPGTGLGLAITKEIVELHGGRIWVESEVGKGSRFFVWIPKDRAGEDNRQDN
notes: Histidine kinase HK853, Thermotoga maritima, cytoplasmic portion (DHp and CA domains), residues 232–489; Crystallised with AMPPNP, which was captured as ADP; also called wild-type HK853^cp; source: E. coli BL21(DE3) Gold, purified (ammonium sulfate precipitation, anion-exchange, size-exclusion)
B5: T264A mutant of the cytoplasmic portion of HK853 (T264A HK853^cp) (domain or fragment, Thermotoga maritima, UniProt Q9WZV7 232-489, looked up)
chain: VENVTESKELERLKRIDRMKTEFIANISHELRAPLTAIKAYAETIYNSLGELDLSTLKEFLEVIIDQSNHLENLLNELLDFSRLERKSLQINREKVDLCDLVESAVNAIKEFASSHNVNVLFESNVPCPVEAYIDPTRIRQVLLNLLNNGVKYSKKDAPDKYVKVILDEKDGGVLIIVEDNGIGIPDHAKDRIFEQFYRVDSSLTYEVPGTGLGLAITKEIVELHGGRIWVESEVGKGSRFFVWIPKDRAGEDNRQDN
notes: Histidine kinase HK853, Thermotoga maritima, cytoplasmic portion (residues 232–489 as stated for HK853^cp), with T264A; also called HK853^cp T264A mutant
B6: BeF3−-RR468 (BeF3−-conjugated form of the response regulator RR468 from Thermotoga maritima) (natural protein)
chain: MSKKVLLVDDSAVLRKIVSFNLKKEGYEVIEAENGQIALEKLSEFTPDLIVLDIMMPVMDGFTVLKKLQEKEEWKRIPVIVLTAKGGEEDESLALSLGARKVMRKPFSPSQFIEEVKHLLNE
modifications: BeF3− on D53 (beryllium atom forming a covalent bond with the phosphate-accepting residue D53; phosphoryl analog)
notes: Response regulator RR468, cognate response regulator of HK853, Thermotoga maritima; Generated by adding 5 mM BeCl2 and 50 mM NaF to RR468 (NMR) or 5 mM BeCl2 and 30 mM NaF (crystallisation); Mg2+ in the active site; source: E. coli BL21(DE3) Gold, purified (incubation at 60 °C, anion-exchange, size-exclusion); BeF3− added as BeCl2 and NaF

Assays:
[1] = molecular target: T1, HK853^cp-BeF3 ^−-RR468 complex (nucleotide site of HK853^cp) (Thermotoga maritima, UniProt Q9WZV7); experiment: X-ray crystal structure, […] A; assay type: binding; conditions: pH 5.0; Mg2+; crystallised with 4 mM AMPPNP, hydrolysed to ADP; ATP site of HK853 CA domain
T1 construct: gene TM_0853; HK853 cytoplasmic portion (DHp and CA domains, residues 232-489), with RR468; heterotetramer of two HK853cp and two RR468; expressed in E. coli; with Response regulator
T1 sequence (Q9WZV7 232-489): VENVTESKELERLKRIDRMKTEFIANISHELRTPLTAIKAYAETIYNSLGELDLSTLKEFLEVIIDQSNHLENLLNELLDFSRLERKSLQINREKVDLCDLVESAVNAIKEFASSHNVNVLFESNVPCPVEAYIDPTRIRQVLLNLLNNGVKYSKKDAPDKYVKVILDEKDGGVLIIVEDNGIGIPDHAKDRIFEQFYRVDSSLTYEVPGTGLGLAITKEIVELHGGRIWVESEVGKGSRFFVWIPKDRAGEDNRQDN
T1 sequence (Q9WYT9 1-122 partner): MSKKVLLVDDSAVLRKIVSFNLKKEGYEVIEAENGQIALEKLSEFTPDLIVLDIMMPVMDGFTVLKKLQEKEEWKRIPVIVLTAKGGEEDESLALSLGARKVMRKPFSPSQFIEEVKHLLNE

[2] = molecular target: T2, HK853^cp-BeF3 ^−-RR468 complex (active site of RR468) (Thermotoga maritima, UniProt Q9WYT9); conditions: pH 5.0; Mg2+; covalent to D53 of RR468
T2 construct: gene TM_0468

[3] = molecular target: T3, HK853^DHp-BeF3 ^−-RR468 complex (Thermotoga maritima, UniProt Q9WYT9); conditions: pH 7.0; Mg2+; 298 K; covalent to D53 of RR468; 10-fold excess of HK853 DHp
T3 construct: gene TM_0468

RR468 = molecular target: T4, RR468 (Thermotoga maritima, UniProt Q9WYT9); conditions: pH 7.0; Mg2+; 298 K; covalent Be bond to D53; formed from 5 mM BeCl2 and 50 mM NaF
T4 construct: gene TM_0468

[4] = molecular target: B6; experiment: NMR titration; 19F NMR of BeF3−-RR468, HK853^DHp or mutants added at a concentration 10-fold higher than BeF3−-RR468; pH 7.0; 20 mM HEPES, 50 mM KCl, 10 mM MgCl2; 298 K; conditions: both partners purified
[5] = molecular target: the molecule itself; experiment: crystal structure; HK853^cp (wild type or T264A) with RR468, BeF3− and AMPPNP (captured as ADP), crystallised at pH 5.0 (citric acid, ammonium sulfate)
[6] = molecular target: B5; experiment: as above; conditions: both partners purified
[7] = molecular target: B4; experiment: as above; conditions: both partners purified

## Nc1ncnc2c1ncn2[C@@H]1O[C@H](COP(=O)(O)OP(=O)(O)O)[C@@H](O)[C@H]1O [ADP]
[1]
  X-ray crystal structure, 2.68 A: The AMPPNP is captured in the hydrolyzed form of ADP

## [F][Be-]([F])[F] [BeF3 ^−]
[2]
  X-ray crystal structure, 2.68 A: reveals a heterotetrameric complex consisting of two HK853^cp and two BeF3 ^−-RR468
[3]
  19F NMR: indicating the formation of the HK853^DHp-BeF3 ^−-RR468 complex
RR468
  19F NMR: we were able to detect three broad fluorine signals from the protein-bound BeF3 ^−

B1: DHp domain of HK853 (HK853^DHp), wild type, residues 250–315 (domain or fragment, Thermotoga maritima, UniProt Q9WZV7 250-315, looked up)
chain: MKTEFIANISHELRTPLTAIKAYAETIYNSLGELDLSTLKEFLEVIIDQSNHLENLLNELLDFSRL
notes: Histidine kinase HK853, Thermotoga maritima, dimerization and histidine-containing phosphotransfer (DHp) domain, residues 250–315; also called wild-type HK853^DHp; not shown: His6, N-terminal, cleaved; MBP, N-terminal, cleaved
[4]
  binding result: binds

B2: T264A mutant of the DHp domain of HK853 (T264A HK853^DHp), residues 250–315 (domain or fragment, Thermotoga maritima, UniProt Q9WZV7 250-315, looked up)
chain: MKTEFIANISHELRAPLTAIKAYAETIYNSLGELDLSTLKEFLEVIIDQSNHLENLLNELLDFSRL
notes: Histidine kinase HK853, Thermotoga maritima, DHp domain, residues 250–315, with T264A; also called T264A HK853 mutant; not shown: His6, N-terminal, cleaved; MBP, N-terminal, cleaved
[4]
  binding result: binds

B3: H260A mutant of the DHp domain of HK853 (H260A HK853^DHp), residues 250–315 (domain or fragment, Thermotoga maritima, UniProt Q9WZV7 250-315, looked up)
chain: MKTEFIANISAELRTPLTAIKAYAETIYNSLGELDLSTLKEFLEVIIDQSNHLENLLNELLDFSRL
notes: Histidine kinase HK853, Thermotoga maritima, DHp domain, residues 250–315, with H260A; not shown: His6, N-terminal, cleaved; MBP, N-terminal, cleaved
[4]
  binding result: binds

## B4
[5]
  binding result: binds

## B5
[5]
  binding result: binds

## B6
[6]
  binding result: binds
[7]
  binding result: binds
